{"source": "paper PMC6436931", "about": "“Activation of the Endonuclease that Defines mRNA 3′ Ends Requires Incorporation into an 8-Subunit Core Cleavage and Polyadenylation Factor Complex” (Molecular Cell, 2019)", "binders": {"B1": {"name": "Rna14-Rna15 complex (6H-Rna14-Rna15) (complex, S. cerevisiae)", "chain 1": "MSSSTTPDLLYPSADKVAEPSDNIHGDELRLRERIKDNPTNILSYFQLIQYLETQESYAKVREVYEQFHNTFPFYSPAWTLQLKGELARDEFETVEKILAQCLSGKLENNDLSLWSTYLDYIRRKNNLITGGQEARAVIVKAFQLVMQKCAIFEPKSSSFWNEYLNFLEQWKPFNKWEEQQRIDMLREFYKKMLCVPFDNLEKMWNRYTQWEQEINSLTARKFIGELSAEYMKARSLYQEWLNVTNGLKRASPINLRTANKKNIPQPGTSDSNIQQLQIWLNWIKWERENKLMLSEDMLSQRISYVYKQGIQYMIFSAEMWYDYSMYISENSDRQNILYTALLANPDSPSLTFKLSECYELDNDSESVSNCFDKCTQTLLSQYKKIASDVNSGEDNNTEYEQELLYKQREKLTFVFCVYMNTMKRISGLSAARTVFGKCRKLKRILTHDVYVENAYLEFQNQNDYKTAFKVLELGLKYFQNDGVYINKYLDFLIFLNKDSQIKTLFETSVEKVQDLTQLKEIYKKMISYESKFGNLNNVYSLEKRFFERFPQENLIEVFTSRYQIQNSNLIKKLELTYMYNEEEDSYFSSGNGDGHHGSYNMSSSDRKRLMEETGNNGNFSNKKFKRDSELPTEVLDLLSVIPKRQYFNTNLLDAQKLVNFLNDQVEIPTVESTKSG", "chain 2": "MNRQSGVNAGVQNNPPSRVVYLGSIPYDQTEEQILDLCSNVGPVINLKMMFDPQTGRSKGYAFIEFRDLESSASAVRNLNGYQLGSRFLKCGYSSNSDISGVSQQQQQQYNNINGNNNNNGNNNNNSNGPDFQNSGNANFLSQKFPELPSGIDVNINMTTPAMMISSELAKKPKEVQLKFLQKFQEWTRAHPEDAVSLLELCPQLSFVTAELLLTNGICKVDDLIPLASRPQEEASATNNNSVNEVVDPAVLNKQKELLKQVLQLNDSQISILPDDERMAIWDLKQKALRGEFGAF", "notes": "Rna14, S. cerevisiae; Rna15, S. cerevisiae; The pull-down methods call the prey 'untagged' though the construct carries a His6 tag; also called Rna14–15; source: E. coli BL21 Star (DE3), purified as described previously (Gordon et al., 2011)"}}, "data": [{"target": "T1, Hrp1 (CF IB) (Saccharomyces cerevisiae, UniProt Q99383 1-534)", "T1 sequence": "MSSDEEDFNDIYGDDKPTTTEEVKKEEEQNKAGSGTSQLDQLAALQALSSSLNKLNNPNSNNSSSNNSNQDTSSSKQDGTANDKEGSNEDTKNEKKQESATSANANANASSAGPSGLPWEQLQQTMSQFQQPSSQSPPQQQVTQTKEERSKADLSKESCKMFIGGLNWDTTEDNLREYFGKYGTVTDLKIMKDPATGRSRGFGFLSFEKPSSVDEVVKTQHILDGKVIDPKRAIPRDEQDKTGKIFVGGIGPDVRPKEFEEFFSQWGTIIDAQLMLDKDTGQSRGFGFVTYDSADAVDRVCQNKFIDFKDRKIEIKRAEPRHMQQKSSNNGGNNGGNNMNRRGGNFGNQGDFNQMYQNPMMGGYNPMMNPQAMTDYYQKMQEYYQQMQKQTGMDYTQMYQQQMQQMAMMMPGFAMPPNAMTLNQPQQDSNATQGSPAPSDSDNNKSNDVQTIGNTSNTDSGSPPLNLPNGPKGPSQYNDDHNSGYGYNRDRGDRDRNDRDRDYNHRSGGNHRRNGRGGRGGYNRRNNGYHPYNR", "assay": "EMSA; EMSA: 50 nM RNA, 0.25-4.0 uM protein, protein diluted in 10 mM HEPES pH 7.9, 150 mM NaCl, 0.5 mM Mg(OAc)2, plus 1x loading dye (orange G, glycerol, EDTA); 30 min on ice; native 6% acrylamide/TBE PAGE", "details": "protein: recombinant; tags: 6H (6H-Hrp1); label: 5'-FAM", "values": [{"binder": "UUUUUUUUUUUUUUU (ssRNA)", "note": "[U15]", "binding result": "binds"}, {"binder": "CCCCCCCCCCCCCCC (ssRNA)", "note": "[C15]", "binding result": "no binding"}, {"binder": "GGGGGGGGGGGGGGG (ssRNA)", "note": "[G15]", "binding result": "binds"}, {"binder": "AAGAACGUUAUUUAUAUUUCAAAUUUUUCUUUUUU (ssRNA)", "note": "[CYC1d EMSA probe]", "binding result": "binds"}, {"binder": "CGUUAUUUAUAUUUCAAAUUUUUCU (ssRNA)", "note": "[CYC1f EMSA probe]", "binding result": "binds"}]}, {"target": "T2, Cft2 (Saccharomyces cerevisiae, UniProt Q12102 1-859)", "T2 sequence": "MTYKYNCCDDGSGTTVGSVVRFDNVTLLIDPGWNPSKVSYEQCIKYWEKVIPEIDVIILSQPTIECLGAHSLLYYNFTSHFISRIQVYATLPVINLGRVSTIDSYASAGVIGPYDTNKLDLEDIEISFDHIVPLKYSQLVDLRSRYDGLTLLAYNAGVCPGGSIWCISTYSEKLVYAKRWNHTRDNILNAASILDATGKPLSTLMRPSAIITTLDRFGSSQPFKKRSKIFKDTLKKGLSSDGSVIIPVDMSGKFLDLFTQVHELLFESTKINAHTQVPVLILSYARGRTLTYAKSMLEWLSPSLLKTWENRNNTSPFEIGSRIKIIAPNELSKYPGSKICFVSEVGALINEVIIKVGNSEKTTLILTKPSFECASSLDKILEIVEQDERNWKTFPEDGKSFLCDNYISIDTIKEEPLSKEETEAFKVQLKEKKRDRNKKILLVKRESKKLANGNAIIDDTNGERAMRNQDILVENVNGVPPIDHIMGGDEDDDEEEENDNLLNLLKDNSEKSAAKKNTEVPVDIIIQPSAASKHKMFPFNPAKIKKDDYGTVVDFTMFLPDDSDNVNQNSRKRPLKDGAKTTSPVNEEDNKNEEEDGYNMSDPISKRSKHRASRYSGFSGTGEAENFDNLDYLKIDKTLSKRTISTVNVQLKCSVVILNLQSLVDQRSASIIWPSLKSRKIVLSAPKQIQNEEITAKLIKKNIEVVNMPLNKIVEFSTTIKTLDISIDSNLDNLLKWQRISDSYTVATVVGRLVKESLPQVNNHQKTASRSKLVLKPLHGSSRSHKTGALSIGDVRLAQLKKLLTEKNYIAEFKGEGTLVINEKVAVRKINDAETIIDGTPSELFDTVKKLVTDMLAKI", "assay": "EMSA; EMSA: 50 nM RNA, 0.25-4.0 uM protein, protein diluted in 10 mM HEPES pH 7.9, 150 mM NaCl, 0.5 mM Mg(OAc)2, plus 1x loading dye (orange G, glycerol, EDTA); 30 min on ice; native 6% acrylamide/TBE PAGE", "details": "protein: recombinant; tags: SII (Cft2-SII) when alone; untagged in CPFpol+Cft2 and CPFcore; label: 5'-FAM", "values": [{"binder": "UUUUUUUUUUUUUUU (ssRNA)", "note": "[U15]", "binding result": "no binding"}, {"binder": "CCCCCCCCCCCCCCC (ssRNA)", "note": "[C15]", "binding result": "no binding"}, {"binder": "AAAAAAAAAAAAAAA (ssRNA)", "note": "[A15]", "binding result": "no binding"}, {"binder": "GGGGGGGGGGGGGGG (ssRNA)", "note": "[G15]", "binding result": "binds"}, {"binder": "AAGAACGUUAUUUAUAUUUCAAAUUUUUCUUUUUU (ssRNA)", "note": "[CYC1d EMSA probe]", "binding result": "binds"}, {"binder": "CGUUAUUUAUAUUUCAAAUUUUUCU (ssRNA)", "note": "[CYC1f EMSA probe]", "binding result": "binds"}]}, {"target": "Pap1 (Saccharomyces cerevisiae, UniProt P29468 1-568)", "sequence (P29468 whole entry)": "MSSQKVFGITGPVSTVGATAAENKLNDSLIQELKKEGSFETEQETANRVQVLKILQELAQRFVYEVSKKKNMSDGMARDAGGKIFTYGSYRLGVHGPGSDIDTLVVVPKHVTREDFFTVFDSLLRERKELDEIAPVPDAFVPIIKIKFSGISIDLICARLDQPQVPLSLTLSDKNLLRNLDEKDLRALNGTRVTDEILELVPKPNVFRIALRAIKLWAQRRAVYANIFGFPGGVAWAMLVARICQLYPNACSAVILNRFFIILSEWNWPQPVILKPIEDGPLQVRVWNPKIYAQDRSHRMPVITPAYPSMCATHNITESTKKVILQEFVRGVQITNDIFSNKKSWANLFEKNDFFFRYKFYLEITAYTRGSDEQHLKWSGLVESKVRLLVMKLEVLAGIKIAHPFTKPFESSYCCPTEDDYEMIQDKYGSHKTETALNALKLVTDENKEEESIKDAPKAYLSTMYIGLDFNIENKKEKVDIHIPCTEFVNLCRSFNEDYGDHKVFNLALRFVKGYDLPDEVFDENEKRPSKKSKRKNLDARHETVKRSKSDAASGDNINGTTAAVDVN", "assay": "EMSA; EMSA: 50 nM RNA, 0.25-4.0 uM protein, protein diluted in 10 mM HEPES pH 7.9, 150 mM NaCl, 0.5 mM Mg(OAc)2, plus 1x loading dye (orange G, glycerol, EDTA); 30 min on ice; native 6% acrylamide/TBE PAGE", "details": "protein: recombinant; tags: SII (Pap1-SII) when alone; untagged in CPFpol and CPFcore; label: 5'-FAM", "values": [{"binder": "UUUUUUUUUUUUUUU (ssRNA)", "note": "[U15]", "binding result": "no binding"}, {"binder": "CCCCCCCCCCCCCCC (ssRNA)", "note": "[C15]", "binding result": "no binding"}, {"binder": "AAAAAAAAAAAAAAA (ssRNA)", "note": "[A15]", "binding result": "no binding"}, {"binder": "GGGGGGGGGGGGGGG (ssRNA)", "note": "[G15]", "binding result": "no binding"}, {"binder": "AAGAACGUUAUUUAUAUUUCAAAUUUUUCUUUUUU (ssRNA)", "note": "[CYC1d EMSA probe]", "binding result": "no binding"}, {"binder": "CGUUAUUUAUAUUUCAAAUUUUUCU (ssRNA)", "note": "[CYC1f EMSA probe]", "binding result": "no binding"}]}, {"target": "T3, CPF_(core): Cft1-Pfs2_(-3C-SII)-Yth1_(-3C-8H)-Fip1-Pap1-Cft2-Ysh1-Mpe1 (S. cerevisiae, UniProt Q06632 1-1357; P42841 1-465; Q06102 1-208; P45976 1-327; P29468 1-568; Q12102 …)", "T3 construct": "Cft1, S. cerevisiae; Pfs2, S. cerevisiae; Yth1, S. cerevisiae; Fip1, S. cerevisiae; Pap1, S. cerevisiae; Cft2, S. cerevisiae; Ysh1, S. cerevisiae; Mpe1, S. cerevisiae; also called eight-subunit core cleavage and polyadenylation factor complex; source: Sf9, co-expressed from one multi-gene baculovirus construct, purified (StrepTactin, Mono Q, Superose 6); not shown: StrepII, C-terminal, kept; …", "assay": "pull-down; Strep-tagged bait proteins and complexes (100 μL at 1.5 μM) immobilised on Streptactin beads; prey CF IA, CF IB, Rna14-Rna15 or Pcf11-Clp1 (20 μL at 4.0 μM) bound 60 min at 4°C; 10 mM HEPES pH 7.9, 150 mM NaCl, 0.5 mM Mg(OAc)2, 0.05% Tween-20; SDS-PAGE, InstantBlue", "details": "both partners purified", "values": [{"binder": "B1", "binding result": "binds"}]}, {"target": "T4, CPFpol: Cft1-Pfs2_(-3C-SII)-Yth1_(-3C-8H)-Fip1-Pap1 (S. cerevisiae, UniProt Q06632 1-1357; P42841 1-465; Q06102 1-208; P45976 1-327; P29468 1-568)", "T4 construct": "Cft1, S. cerevisiae; Pfs2, S. cerevisiae; Yth1, S. cerevisiae; Fip1, S. cerevisiae; Pap1, S. cerevisiae; also called polymerase module; source: Sf9, purified as described previously (Casañal et al., 2017); not shown: StrepII, C-terminal, kept; copies: + + + +", "assay": "pull-down; Strep-tagged bait proteins and complexes (100 μL at 1.5 μM) immobilised on Streptactin beads; prey CF IA, CF IB, Rna14-Rna15 or Pcf11-Clp1 (20 μL at 4.0 μM) bound 60 min at 4°C; 10 mM HEPES pH 7.9, 150 mM NaCl, 0.5 mM Mg(OAc)2, 0.05% Tween-20; SDS-PAGE, InstantBlue", "details": "both partners purified", "values": [{"binder": "B1", "binding result": "binds"}]}, {"target": "T5, CPFpol (no Pap1): Cft1-Pfs2_(-3C-SII)-Yth1_(-3C-8H)-Fip1 (S. cerevisiae, UniProt Q06632 1-1357; P42841 1-465; Q06102 1-208; P45976 1-327)", "T5 construct": "Cft1, S. cerevisiae; Pfs2, S. cerevisiae; Yth1, S. cerevisiae; Fip1, S. cerevisiae; also called polymerase module without Pap1; source: Sf9, purified as described previously (Casañal et al., 2017); not shown: StrepII, C-terminal, kept; copies: + + +", "T5 sequence (Q06632 whole entry, chain 1 of 4)": "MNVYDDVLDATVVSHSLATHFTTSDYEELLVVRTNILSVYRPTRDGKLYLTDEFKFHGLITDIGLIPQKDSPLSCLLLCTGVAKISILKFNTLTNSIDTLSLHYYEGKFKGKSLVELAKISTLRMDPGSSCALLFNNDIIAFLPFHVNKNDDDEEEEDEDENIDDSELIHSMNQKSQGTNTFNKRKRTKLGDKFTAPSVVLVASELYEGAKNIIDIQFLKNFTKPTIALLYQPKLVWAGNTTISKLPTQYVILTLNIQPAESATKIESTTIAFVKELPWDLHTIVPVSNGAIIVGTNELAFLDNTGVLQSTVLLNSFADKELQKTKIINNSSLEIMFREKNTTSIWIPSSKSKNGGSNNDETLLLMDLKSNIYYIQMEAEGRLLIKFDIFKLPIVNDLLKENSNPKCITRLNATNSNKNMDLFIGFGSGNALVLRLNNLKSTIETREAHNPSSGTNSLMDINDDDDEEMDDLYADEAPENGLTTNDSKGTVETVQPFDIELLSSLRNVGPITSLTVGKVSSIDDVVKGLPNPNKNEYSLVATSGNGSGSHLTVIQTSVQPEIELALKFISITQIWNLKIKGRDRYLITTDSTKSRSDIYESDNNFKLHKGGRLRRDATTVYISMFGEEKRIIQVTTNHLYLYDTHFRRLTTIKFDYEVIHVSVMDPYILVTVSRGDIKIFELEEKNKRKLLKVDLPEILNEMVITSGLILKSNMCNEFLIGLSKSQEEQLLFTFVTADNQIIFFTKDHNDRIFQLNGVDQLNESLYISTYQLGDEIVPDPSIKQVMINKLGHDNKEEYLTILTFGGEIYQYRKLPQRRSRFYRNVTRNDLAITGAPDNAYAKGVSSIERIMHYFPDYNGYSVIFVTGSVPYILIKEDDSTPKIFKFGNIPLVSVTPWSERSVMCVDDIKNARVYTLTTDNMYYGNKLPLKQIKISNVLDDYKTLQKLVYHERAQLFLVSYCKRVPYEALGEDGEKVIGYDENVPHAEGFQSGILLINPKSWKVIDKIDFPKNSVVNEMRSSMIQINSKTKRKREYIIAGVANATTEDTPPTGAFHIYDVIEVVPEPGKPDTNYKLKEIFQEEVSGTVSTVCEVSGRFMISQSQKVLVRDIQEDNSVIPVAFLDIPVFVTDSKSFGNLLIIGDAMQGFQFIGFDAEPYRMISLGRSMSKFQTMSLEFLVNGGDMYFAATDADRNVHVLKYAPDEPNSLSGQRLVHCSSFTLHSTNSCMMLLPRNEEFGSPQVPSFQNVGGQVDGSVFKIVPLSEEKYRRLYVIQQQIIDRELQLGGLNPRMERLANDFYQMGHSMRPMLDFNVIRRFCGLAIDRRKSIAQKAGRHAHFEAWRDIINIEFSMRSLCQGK", "T5 sequence (P42841 whole entry, chain 2 of 4)": "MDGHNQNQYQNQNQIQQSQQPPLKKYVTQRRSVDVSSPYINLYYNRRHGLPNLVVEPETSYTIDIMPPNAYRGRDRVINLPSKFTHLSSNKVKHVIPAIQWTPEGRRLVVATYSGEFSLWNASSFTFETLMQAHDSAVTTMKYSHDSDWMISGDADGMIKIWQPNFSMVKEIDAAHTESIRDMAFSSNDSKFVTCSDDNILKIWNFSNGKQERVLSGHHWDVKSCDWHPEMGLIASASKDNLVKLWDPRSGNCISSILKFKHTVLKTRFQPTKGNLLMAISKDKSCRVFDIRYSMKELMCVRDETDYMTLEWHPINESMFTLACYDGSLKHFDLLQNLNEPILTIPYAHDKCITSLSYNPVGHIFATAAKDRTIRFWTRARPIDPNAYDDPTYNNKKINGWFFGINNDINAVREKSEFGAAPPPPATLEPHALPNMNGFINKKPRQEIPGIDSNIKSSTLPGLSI", "T5 sequence (Q06102 whole entry, chain 3 of 4)": "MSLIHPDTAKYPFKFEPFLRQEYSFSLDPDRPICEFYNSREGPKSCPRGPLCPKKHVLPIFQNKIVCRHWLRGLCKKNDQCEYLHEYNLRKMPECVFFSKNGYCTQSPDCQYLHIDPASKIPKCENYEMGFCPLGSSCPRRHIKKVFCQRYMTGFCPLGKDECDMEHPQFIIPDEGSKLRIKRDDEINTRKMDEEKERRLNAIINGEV", "T5 sequence (P45976 whole entry, chain 4 of 4)": "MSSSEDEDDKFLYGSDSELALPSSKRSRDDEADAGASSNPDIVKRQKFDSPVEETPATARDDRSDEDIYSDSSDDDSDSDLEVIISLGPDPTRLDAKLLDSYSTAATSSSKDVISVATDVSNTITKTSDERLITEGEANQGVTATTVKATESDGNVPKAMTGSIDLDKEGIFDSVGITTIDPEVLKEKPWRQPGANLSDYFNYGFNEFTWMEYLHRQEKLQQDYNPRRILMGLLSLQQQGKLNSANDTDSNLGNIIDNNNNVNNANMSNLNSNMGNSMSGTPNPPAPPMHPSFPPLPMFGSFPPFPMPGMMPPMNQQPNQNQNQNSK", "assay": "pull-down; Strep-tagged bait proteins and complexes (100 μL at 1.5 μM) immobilised on Streptactin beads; prey CF IA, CF IB, Rna14-Rna15 or Pcf11-Clp1 (20 μL at 4.0 μM) bound 60 min at 4°C; 10 mM HEPES pH 7.9, 150 mM NaCl, 0.5 mM Mg(OAc)2, 0.05% Tween-20; SDS-PAGE, InstantBlue", "details": "both partners purified", "values": [{"binder": "B1", "binding result": "binds"}]}]}
